The target in this experiment is netrin-1 secreted by mouse macrophages (conditioned medium of oxLDL-, CoCl2-, HIF-1alpha- or palmitate-treated macrophages) (mouse) (UniProt O09118). Description: cell-based or functional assay.

As for “recombinant rat UNC5b-Fc chimera (cat #1006-UN, R&D Systems) (from UniProt O08722 27-373) (Fc fusion)”, the inhibition of migration of naive macrophages to CCL19 by Ntn1+/+ conditioned medium with UNC5b-Fc was 25%.

Source of the values: patent US20210113687A1, “METHODS FOR TREATING INFLAMMATION” (NEW YORK UNIVERSITY, priority 2013, published 2021).
